Laboratory results from patent US20250042968A1, “EPHRIN LIGAND MIMETIC PEPTIDES FOR THE TREATMENT OF NEURODEGENERATIVE DISEASES” (University of Miami, priority 2022, published 2025).

T1: EphB3, P54753
T1 chain: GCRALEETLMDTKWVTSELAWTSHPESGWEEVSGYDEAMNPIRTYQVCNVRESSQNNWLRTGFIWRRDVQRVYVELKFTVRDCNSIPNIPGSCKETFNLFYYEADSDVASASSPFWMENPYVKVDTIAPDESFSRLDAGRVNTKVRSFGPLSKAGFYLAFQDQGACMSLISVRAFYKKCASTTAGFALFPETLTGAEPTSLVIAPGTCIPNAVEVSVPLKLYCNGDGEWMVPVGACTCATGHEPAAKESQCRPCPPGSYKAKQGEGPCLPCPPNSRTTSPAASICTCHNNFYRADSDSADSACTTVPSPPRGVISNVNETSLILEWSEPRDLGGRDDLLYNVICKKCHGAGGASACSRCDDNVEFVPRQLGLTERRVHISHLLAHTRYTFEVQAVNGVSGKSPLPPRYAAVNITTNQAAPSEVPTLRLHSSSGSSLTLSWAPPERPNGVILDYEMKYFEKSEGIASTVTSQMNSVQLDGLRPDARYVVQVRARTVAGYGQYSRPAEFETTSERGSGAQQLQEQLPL

T2: EphB2, P29323
T2 chain: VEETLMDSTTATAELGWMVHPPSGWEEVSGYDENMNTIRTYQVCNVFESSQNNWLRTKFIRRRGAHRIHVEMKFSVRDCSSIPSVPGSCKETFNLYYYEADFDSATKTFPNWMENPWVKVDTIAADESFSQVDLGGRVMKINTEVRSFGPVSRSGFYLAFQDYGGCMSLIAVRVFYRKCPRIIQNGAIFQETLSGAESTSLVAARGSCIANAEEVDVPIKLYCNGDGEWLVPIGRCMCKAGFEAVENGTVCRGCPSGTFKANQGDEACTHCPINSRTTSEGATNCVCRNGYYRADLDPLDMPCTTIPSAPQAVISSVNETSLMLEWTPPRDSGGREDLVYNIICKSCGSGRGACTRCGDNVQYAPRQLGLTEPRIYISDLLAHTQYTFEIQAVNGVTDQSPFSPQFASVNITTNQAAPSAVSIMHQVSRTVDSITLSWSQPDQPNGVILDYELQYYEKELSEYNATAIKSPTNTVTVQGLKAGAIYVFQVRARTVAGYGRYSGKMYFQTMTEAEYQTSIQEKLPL


Tests used:
Assay in all cases: BLI
Details in all cases: modification not given
EphB3, P54753 = target: T1, EphB3, P54753
EphA2, P29317 = target: EphA2, P29317
EphB2, P29323 = target: T2, EphB2, P29323

EphA2, P29317, sequence (P29317 25-534): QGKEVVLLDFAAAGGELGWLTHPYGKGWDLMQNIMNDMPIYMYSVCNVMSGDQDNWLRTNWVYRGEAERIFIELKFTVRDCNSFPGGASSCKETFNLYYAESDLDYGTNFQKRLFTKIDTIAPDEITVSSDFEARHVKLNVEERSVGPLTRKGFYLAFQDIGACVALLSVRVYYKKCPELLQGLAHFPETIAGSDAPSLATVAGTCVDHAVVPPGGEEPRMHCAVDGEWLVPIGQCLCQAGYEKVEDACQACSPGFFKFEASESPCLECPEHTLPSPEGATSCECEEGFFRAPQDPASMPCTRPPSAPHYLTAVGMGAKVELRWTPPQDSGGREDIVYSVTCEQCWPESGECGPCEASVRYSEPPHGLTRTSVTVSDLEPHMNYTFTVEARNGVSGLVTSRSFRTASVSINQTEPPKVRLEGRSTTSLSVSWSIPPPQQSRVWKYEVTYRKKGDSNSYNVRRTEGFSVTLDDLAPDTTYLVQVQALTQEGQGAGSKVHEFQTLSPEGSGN

Binder	Kd (EphB3, P54753)	Kd (EphA2, P29317)	Kd (EphB2, P29323)
KFQLFSPFLWGFEF [xEFN_RBD2]	5070 µM	–	–
QEFSPNLWGLEFKKN [xEFN_RBD4]	156 µM	178 µM	263 µM
